Tested on: MS2 coat protein
Experiment: apparent KD of MS2 coat protein; designed switch direction (-1 OFF switch, 1 ON switch): -1; higher = weaker reporter binding
Summary of the method: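 Each step of the titration lasted 0.8–1.5 h at the lowest concentration and 10–20 min at the highest. The protein, SNAP-549-labelled MS2 coat protein, went from 0.7 or 1.5 nM doubling to 3 µM over RNA switches transcribed on Illumina chips by stalled E. coli RNA polymerase. Normalised cluster fluorescence was curve-fitted, and the per-design median over clusters is given as apparent KD.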

[1] = Eterna round: R95, input ligand: FMN 200 uM
[2] = Eterna round: R95, input ligand: microRNA oligo, concentration not stated
[3] = Eterna round: R95, input ligand: none
[4] = input ligand: microRNA oligo, concentration not stated

| Sequence | apparent KD of MS2 coat protein (input ligand: FMN 200 uM) [µM] | apparent KD of MS2 coat protein (input ligand: none) [µM] | apparent KD of MS2 coat protein [1] [µM] | apparent KD of MS2 coat protein [2] [µM] | apparent KD of MS2 coat protein [3] [µM] | apparent KD of MS2 coat protein [4] [µM] |
| --- | --- | --- | --- | --- | --- | --- |
| CUGACUCAAGGAUAUUGUACUGCUGACAUGAGGAUCACCCAUGUAUGUUAACUCGGCCGACGAGAAGGUGACAAAA [BotMod 7 - Jieux - Exclusion 5] (Eterna round: R97, puzzle: Exclusion 5) | 0.126 | 0.111 | – | – | – | – |
| GAUUGACAUGAGGAUCACCCAUGUGAGGAUAUCGGCCGGACCGUGCUGGCUUCCGUCGCGAGAAGGCGCAUAGG [Exclusion 1 V41] (puzzle: Exclusion 1) | – | – | 0.0782 | 0.0355 | 0.0389 | – |
| UUCUCGACAUGAGGAUCACCCAUGUAGUGGGAGAAAACUGGUUAGGAUAUAAAAUAGUACACCGUUUAGAAGGGACCUAUCCUC [Eternabot solution 4] (Eterna round: R96, puzzle: Exclusion NG 3) | 0.0792 | 0.0723 | – | – | – | 0.0457 |
| AGUACUAACACGAAAGUGUUAGUACAAUAAGCUUGUAAAACAUGAGGAUCACCCAUGUCCUCAUAAGCUCGUCUUAU [Mat - Sensor v3 - Turn-off var 2 - D47] (puzzle: Sensor v3, turn-off variant 2) | – | – | 0.25 | 0.0115 | 0.446 | – |
| UGCGGGCUUUUGAGACCUCACAUGAGGAUCACCCAUGUGCUUGUCUUGUGGGUCGGUCGGUCGUUGGCUGGCUGGCG [Sensor-V1 #95] (Eterna round: R97, puzzle: Sensor, turn-off variant 1) | 0.02 | 0.0193 | – | – | – | – |
| GGCAUGCAAGGAUAUACUUACAGUGAUGUUCGAAUAAGUCUACUUGAGGAUCACCCAAGUAGAAGGUGCAUGCC [Exclusion 2 (Mod3.1 JL EX2 4.74 Vienna UCT mod of Mamaed)] (Eterna round: R97, puzzle: Exclusion 2) | 0.0628 | 0.016 | – | – | – | – |
| AAUAACAGAGGAUAUACUGUUUUAUGUAUUUAUUAUUUUAAACAUGAGGAUCACCCAUGUAGAAGGCUGAUUGA [JMF 71] (puzzle: Exclusion 2) | – | – | – | 0.0268 | – | – |
| AAUCCACAUGAGGAUCACCCAUGUCAGGAUAUCGUGUCGCGGGUUUCGGUCCGUGAUGCGAGAAGGGACGGCUG (puzzle: Exclusion 1) | – | – | – | 0.0274 | – | – |
| CGGCGACAUGAGGAUCACCCAUGUGAGGAUAUGACGGGAAAAGCGUGAGCGGUUUGUGUCAGAAGGCGCGUAGG [salish99_ex1_r4_084] (Eterna round: R97, puzzle: Exclusion 1) | 0.0208 | 0.0287 | – | – | – | – |
| GUACUGAAGCAUAGCUUUAGUCGUACAUGAGGAUCACCCAUGUAGGAUAUGGUAGGCAUAGCUUACUAGAAGGAUAGAGUGAUC [Mat - Exclusion NG 3 - Mod of JL - D72] (Eterna round: R96, puzzle: Exclusion NG 3) | 0.44 | 0.137 | – | – | – | 0.0716 |
| AAUAAUAAAGUCAGGAUAUCUAGAGCCUCGGCUCUAGAGAAGGGACAUGAGGAUCACCCAUGUCACUCAAUAAU [BmEx4/3-D2] (Eterna round: R97, puzzle: Brourd's mod of Exclusion 4) | 0.0202 | 0.0177 | – | – | – | – |
| UGAUGACAUGAGGAUCACCCAUGUCAGGAUAUUGAUCGUGAUCGGAAAUGAUCGUGAUCGAGAAGGGACUGUCG [-24.4, -21.4 kcal, A 28%, 2] (Eterna round: R97, puzzle: Exclusion 1) | 0.0318 | 0.0276 | – | – | – | – |
| AGUAACUAUCACGAAAGUGAUAGUUACACAAGCAGUGACACAUGAGGAUCACCCAUGUCCUCAUUUGCUCGUCUUAU [Sensor 3 - 29] (puzzle: Sensor v3, turn-off variant 2) | – | – | 0.614 | 0.637 | 0.478 | – |
| AAAACGUCAGGAUAUACGAAAUAAAAUAAAAUAAAAUAAAAGUAGAAGGGACAUGAGGAUCACCCAUGUAAUAA [Exclusion 4 #1] (puzzle: Exclusion 4) | – | – | 0.0437 | 0.0266 | 0.0362 | – |
| CUGUACUGAGGAUAUACAUGAGGAUCACCCAUGUGAUCUAGUGCACGCGUACGUGUACGUAGAAGGCAGUACAG [Mat - Exclusion 3 - Eli Mod - D38] (Eterna round: R97, puzzle: Exclusion 3) | 0.792 | 0.0565 | – | – | – | – |
| AAUGUUUGAUUCCACUUAUACAUGAGGAUCACCCAUGUUAUCGAGGAUAUGCAUUAGAGUGUUUAGCAGAAGGCGAUGUAAUUG [JR_ExcNG3_Sub034] (Eterna round: R96, puzzle: Exclusion NG 3) | 0.0902 | 0.0138 | – | – | – | 0.0131 |
| GAUUAUGCGAGCUUUAGGGACAUGAGGAUCACCCAUGUUCGUCUUAUUAGUCUGAGUGCACUGACAUACCUAAAUCU [JMF 85] (puzzle: Sensor v3, turn-off variant 1) | – | – | 0.0154 | 0.022 | 0.0167 | – |
| AGCCUCGCUGUUAGGAUAUGCAUGGAUAAGCUCCGGCAGAAGGGACAUGAGGAUCACCCAUGUAACGUAGUUUA [BmEX4 B.4] (Eterna round: R97, puzzle: Brourd's mod of Exclusion 4) | 0.0318 | 0.0252 | – | – | – | – |
| AGUACUAACACGUCGGUGUUAGUACAAUAAGCUUGUGAAACAUGAGGAUCACCCAUGUCCUCAUAAGCUCGUCUUAU [salish99_TOv2_r3_080] (puzzle: Sensor v3, turn-off variant 2) | – | – | 0.0174 | 0.575 | 0.0155 | – |
| GAUUAUGCGAGCUUUAGGGACAUGAGGAUCACCCAUGUUCGUCUUGUUGAUCUAGGUGCACUGACAUACCUAAAUCU [JMF 88] (puzzle: Sensor v3, turn-off variant 1) | – | – | 0.0209 | 0.0277 | 0.0224 | – |
| GCAAGCUUUUUCAAUAAGAACAUGAGGAUCACCCAUGUUUAAGGUAUUACUUUUGGGCUCUUUAGUGCUCGUCUUAU [JR_STOV1_Sub035] (Eterna round: R97, puzzle: Sensor, turn-off variant 1) | 0.0179 | 0.0182 | – | – | – | – |
| ACAGUUCUGCAAGGAUAUCGUCCUAGUUUGUUUCGAGAAGGUGCUUUUGUUUUUUCCUUUUGUUUACAUGAGGAUCACCCAUGU [JR_ExcNG1_Sub051] (Eterna round: R96, puzzle: Exclusion NG 1) | 0.0156 | 0.0189 | – | – | – | 0.0166 |
| GAAAAGGUAGGAUAUACGAAAAAAUAGGGUAGAAAAAAAACACAUGAGGAUCACCCAUGUAGAAGGACCAAAAG [salish99_ex2_r3_081] (puzzle: Exclusion 2) | – | – | 0.0476 | 0.0337 | 0.0275 | – |
| UACACGGGAGGAUAUACGUAGAUGCAGGUUCGUGUGGUGCUACAUGAGGAUCACCCAUGUAGAAGGCCCAACGU [Mod 4 R3 JL-ex2-2.29] (Eterna round: R97, puzzle: Exclusion 2) | 0.0263 | 0.0234 | – | – | – | – |
| AAAUGUUGUAAGGAUAUUGAAUAAGAAAACUUACGAGAAGGUGCGACAUGAGGAUCACCCAUGUUCCCAAAGGG [Alacar 2] (Eterna round: R97, puzzle: Exclusion 6) | 0.0315 | 0.0304 | – | – | – | – |

Source: the supplement of paper PMC9170038
